{"source": "patent US20100151486A1", "about": "“OSTEOPONTIN FUNCTIONAL EPITOPES, MONOCLONAL ANTIBODIES AGAINST THE EPITOPES AND USES THEREOF” (SHANGHAI NATIONAL ENGINEERING RESEARCH CENTER OF A, priority 2007, published 2010)", "molecules": {"B1": {"name": "humanized anti-hOPN antibody h1A12 (h1A12Hb/h1A12Lb) (antibody, human IgG1, kappa, V domains shown)", "VH": "QVQLVQSGAEVKKPGASVKVSCKSSGYTFTTYVMHWVKQAPGQGLEWIGYINPYNDGSKYNEKFKGRVTITSDKSASTAYMELSSLRSEDTAVYYCASHYGGSPAYWGQGTLVTVSS", "VL": "DVLMTQSPLSLPVTLGQPASISCRSSQSLVHSNGNTYLHWFQQRPGQSPKLLIYKVSNRFSGVPDRFSGSGSGTDFTLKISRVEAEDVGVYYCSQSTHVPWTFGGGTKVEIKR", "notes": "Tested as COS-1 supernatant in the ELISA; also called humanized antibody 1A12"}, "B2": {"name": "h1A12: humanized anti-hOPN mAb; VH SEQ ID NO: 19, VL SEQ ID NO: 21, human constant region (antibody, V domains shown)", "VH": "B1 VH", "VL": "B1 VL", "modifications": "human constant regions; amino acid sequence of the VH in humanized anti-OPN antibody H1A12; amino acid sequence of the VL in humanized anti-OPN antibody H1A12"}, "B3": {"name": "c1A12: chimeric anti-hOPN mAb between human and murine; VH SEQ ID NO: 4, VL SEQ ID NO: 6, human constant region (antibody, V domains shown)", "VH": "QVQLEQSGPELVKPGASVKMSCKSSGYTFTTYVMHWVKQKPGQGLEWIGYINPYNDGSKYNEKFKGKATLTSDKSSNTAYMELSSLTSEDSAVYYCASHYGGSPAYWGQGTLVTVSA", "VL": "DILMTQTPLSLPVSLGDQASISCRSSQSLVHSNGNTYLHWYLQKPGQSPKLLIYKVSNRFSGVPDRFSGSGSGTDFTLKISRVEAEDLGVYFCSQSTHVPWTFGGGTKLEIKR", "modifications": "human constant regions; amino acid sequence of the heavy chain variable region in 1A12; amino acid sequence of the light chain variable region in 1A12"}}, "key": {"[1]": {"target": "T1, human osteopontin (human OPN protein) (human, UniProt P10451 17-314, limits assumed)", "T1 construct": "The isoform follows from the 963 bp PCR fragment and is not otherwise stated; also called hOPN", "T1 sequence (P10451 17-314 limits assumed)": "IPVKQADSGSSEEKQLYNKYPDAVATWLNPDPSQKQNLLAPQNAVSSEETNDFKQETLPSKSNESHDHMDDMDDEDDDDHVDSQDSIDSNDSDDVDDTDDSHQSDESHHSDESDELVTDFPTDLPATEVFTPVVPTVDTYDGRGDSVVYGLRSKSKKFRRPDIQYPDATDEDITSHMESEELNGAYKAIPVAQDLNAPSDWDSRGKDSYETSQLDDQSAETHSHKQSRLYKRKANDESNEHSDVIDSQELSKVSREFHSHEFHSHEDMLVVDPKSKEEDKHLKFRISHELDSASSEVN", "test": "ELISA, plate coated with OPN 2 ug/ml, COS-1 supernatant, HRP-rabbit anti-human IgG", "procedure": "An ELISA plate was coated with 2 ug/ml OPN. The binding activity of the humanized antibody obtained from the transfection was detected by ELISA. […] The amino acid sequences of the h1A12HBb's and the h1A12Lb's variable regions were shown in FIG. 4, SEQ ID NO: 18 and SEQ ID NO: 19 show the nucleotide sequence and the amino acid sequence of h1A12Hb's variable region respectively. SEQ ID NO: 20 and SEQ ID NO: 21 show the nucleotide sequence and the amino acid sequence of h1A12Lb's variable region respectively. The genes of the humanized antibody's VH and VL (h1A12VHb/h1A12VLb) were synthesized respectively. […] Then, expression vectors of the light and the heavy chain were used to co-transfect the COS-1 cells. The antibody's antigen-binding activity was determined by ELISA. Specifically, an ELISA plate was coated with OPN protein (2 ug/ml) coated at 4° C. overnight, and was blocked with 2% BSA-PBS for 2 h at 37° C. […] HRP-rabbit anti-human IgG was added into the plate for binding reaction (incubated at 37° C. for 1 h)."}, "MDA-MB-435s cells [2]": {"tested_on": "MDA-MB-435s cells", "test": "Clone formation on soft agar assay", "type": "cell-based", "settings": "antibody 25 μg/ml every other day; 3 weeks", "procedure": "The assay of clone formation on soft agar was conducted using a double-layer soft agar system. 2.5% melted agar was mixed the DMEM medium pre-warmed at 37° C. to formulate a 0.5% agar solution, which was then diluted with DMEM to a 0.3% agar solution. To each well of a 24-well plate was added 500 μl of a 0.5% agar solution, which was allowed to gel at 4° C., and then kept warm in an incubator at 37°C. The MDA-MB-435s cells were detached using 0.2% .EDTA and suspended in the 0.3% agar solution at the concentration of 5×10^3 cells/ml. 500 μl of the cell suspension was added each well and left to gel. From the second day, the cells were respectively treated with 1A12, c1A12, h1A12 or the irrelevant antibody (23C3D3) (25 μg/ml) every other day. After 3 weeks, the colony formation ability was evaluated by measuring the size of colonies containing more than 10 cells."}, "MDA-MB-435s cells [3]": {"tested_on": "MDA-MB-435s cells", "test": "Cell adhesion assay on hOPN-coated plate", "type": "cell-based", "settings": "antibody 25 μg/ml; plate coated with 10 μg/ml hOPN; 2 hrs", "procedure": "MDA-MB-435s was purchased from the Institute of Cell Biology of Chinese Academy of Sciences (Shanghai, China), and 23C3D3 was used as the irrelevant antibody.\nA 96-well plate (Greiner) was coated with 10 μg/ml hOPN (prepared in Example 3) or BSA (SIGMA) at 4° C. overnight, and was then blocked with 1% BSA/PBS at 37° C. for 1 hour to block any non-specific binding sites. The MDA-MB-435s cells were detached using 0.2% EDTA and then re-suspended in 0.25% BSA/DMEM at the concentration of 5×10^5 cells/ml. To each well, 100 μl (5×10^4) MDA-MB-435s cells were added in the presence of various anti-OPN antibodies (25 μg/ml) murine anti-human OPN antibody 1A12, the human-murine chimeric antibody c 1A12 or the humanized antibody h1A12 as treatment groups and the irrelevant antibody 23C3 as control (25 μg/ml). After incubation at 37° C. for 2 hrs, the medium was removed and washed twice with PBS gently. The adherent cells were fixed in 1% formaldehyde at 4° C. for 10 minutes, stained with 0.5% crystal violet after washed with PBS and lysed with 2% Triton X-100 (50 μl). The absorbance was measured at 595 nm."}, "[4]": {"tested_on": "human vascular endothelial cell (HUVEC)", "test": "HUVEC proliferation by 3H-TdR incorporation", "type": "cell-based", "settings": "M200+1% BSA+OPN+antibody; 24 hours", "procedure": "HUVEC cell proliferation was measured by the ^3H-TdR incorporation method to determine the protective effect of OPN on cell survival and the inhibitory effect of the anti-OPN antibodies on the OPN protection. Each well of a 96-well plate was inoculated with 2×10^4 HUVECs and cultured in a complete medium for 24 hours. The cells were then treated as following for 24 hours: […]\niv. M200+1% BSA+OPN+murine anti-OPN antibody 1A12 v. M200+1% , BSA+OPN+human-murine chimeric anti-OPN antibody c1A12 vi. M200+1% BSA+OPN+humanized anti-OPN antibody h1A12 vii. M200+1% BSA+OPN+irrelevant antibody\n24 hours later, 1 uCi/well ^3H-thymidine was added and, after being incubated at 37° C. for 6 hours, washed once with PBS. The plate was treated with ice-cold 10% trichloroacetic acid/H2O at 4° C. for 10 min, and then washed for two times with, ice-cold ddH2O. Cytolysis was conducted by adding into each well 0.1 ml of 0.5 N NaOH, 0.5% SDS at room temperature for 10 min. After adding 0.2 ml of 0.5 N HCl and mixing, the cells were collected using a multiple cell collector."}, "MDA-MB-435s cells [5]": {"tested_on": "MDA-MB-435s cells", "test": "Cell invasion assay (Transwell, Matrigel)", "type": "cell-based", "settings": "antibody 25 μg/ml; in the presence of hOPN; 24 hours", "procedure": "The assay of cell invasion was carried out using the Transwell system (Corning) with the pore size of […]. The basement membrane of the upper chamber was coated with the artificial matrix gel (Matrigel). After being dried in a flame hood, the matrigel was hydrated with DMEM at 37° C. for 1 hour. MDA-MB-435s cells were detached using 0.2% EDTA and suspended in 0.25% BSA/DMEM at the concentration of 5×10^5 cells/ml. 100 μl of the obtained cell suspension as well as the following 25 μg/nil of antibodies were respectively added into the upper chamber of each well: 1A12 (murine anti-human OPN antibody), c1A12 (human-mouse chimeric antibody), h1A12 (humanized antibody), and 23C3 (irrelevant antibody control). To lower chamber, 0.25% of BSA/DMEM (with or without OPN) was added. The system was then incubated in incubator at 37° C. for 24 hours. After that, the cells remaining in the upper chamber was wiped away using a cotton swab, and the cells penetrate through the basement membrane into the lower chamber were washed with PBS, fixed with 1% formaldehyde, and then stained with 0.5% crystal violet. The cells were counted in the field at 200× magnification under a microscope."}, "rabbit cornea": {"tested_on": "rabbit cornea", "test": "OPN-induced rabbit corneal neovascularization", "type": "in vivo", "settings": "pellet with 200 ng hOPN and 1 μg antibody; for area of neovascularization / length of the newly generated blood vessels: relative to irrelevant antibody group, P<0,01", "procedure": "The Hydron powder was dissolved in anhydrous ethanol under sterile condition to the final concentration of 12% (w/v), and dissolved with agitation under 37° C. to formulate the 12% Hydron cast solution, which was then stored at room temperature. A quota of sucralfate powder formulated in sterile Milli Q water under sterile conditions as a suspension with the final concentration of 100 μg/μl, which was stored at 4° C., and vortexed to homogeneous intermediately before use. Sustained-release pellets were prepared to each containing 200 ng hOPN and 50 μg sucralfate and, for the antibody groups, 1 μg anti-OPN antibodies, and for the control, the irrelevant antibody. The 12% Flydron east solution and the hOPN-sucralfate-PBS blend were mixed as the ratio of 1:1 (volume ratio), vortexed for 1 min. Then 5 μl mixed Hydron-sucralfate-hOPN solution was added onto a sterilized Parafilm surface, dried for about 30 min on a super-clean bench for a complete polymerization. The polymers were then shaped into uniform circular granules with a 2 mm diameter using an eye tweezers. The granules were stored at −20′C. Animals were grouped in the same way as in Experiment II-3, each group consisting of four eyes.\nThe rabbit was anesthetized at ear edge vein with 3% sodium pentobarbital (1 ml/kg body weight) and on both corneal surfaces with 1% tetracaine. The thickness of the cornea was measured using an ultrasonic cornea thickness gauge. A 3 mm half-depth incision was made at the center of the cornea using an ophthalmic knife, and an undermining tunnel toward the 12 o'clock or 3 o'clock position on the corneoscleral margin was made using a 2 mm-wide scleral tunnel knife, whereby the tunnel lied within the corneal layer with the top of the tunnel about 1 mm distant from the limbus corneae. The Hydron/sucralfate sustained-release pellet was implanted into the top of tunnel using micro-tweezers. The cuts were treated with chlortetracycline eye ointment after the surgery. From Day 1 after the surgery, the double-blinded observer observed the rabbit conical neovascularization under the slit-lamp each day, until the Day 10, The length (VL) and the vascular clock angle (CN, 30°=1CN) of the longest vessel were measured, and the area of neovascularization was calculated according to the following formula:\nArea (mm^2)=0.2×π×VL (mm)×CN (mm)"}, "HUVECs": {"tested_on": "HUVECs", "test": "Formation of capillary-like structure in HUVECs on matrigel", "type": "cell-based, human", "procedure": "HUVECs were cultured in the M200 medium containing LCGS to 80% confluence. The matrigel stored at −20° C. was took out the day before experiment and naturally thawed at 4° C. for 3 to 12 hours. To each well of a 96-welt plate was added […] using a pre-cooled pipet with carefully removing the bubbles, wherein the whole procedure was carried on ice. The loaded plate was incubated at 37° C. for 1 hour to gel the matrigel. To each well, 100 μl HUVECs (2×10^4/well) was gently added onto the surface of matrigel. To the treatment groups were further added the anti-hOPN antibodies 1A12, c1A12 and h1A12. The plate was incubated at 37° C. for […], and the formation of the capillary-like structure was observed 6 hours after."}, "MDA-MB-435s cells [6]": {"tested_on": "MDA-MB-435s cells", "test": "Scratch wound healing assay", "type": "cell-based", "settings": "antibody 25 μg/ml; 24 hours", "procedure": "The MDA-MB-435s cells cultured in a 12-wells plate to almost confluent (90%) washed with PBS and starved overnight with serum-free DMEM. Scratches were made on the cell monolayer using a 10 μl pipette, and PBS was added to wash away the floating cells. The test groups were treated with 25 μg/ml of the murine anti-human OPN antibody 1A12, the human-murine chimeric antibody c1A12 and the humanized antibody h1A12, and the control group, 25 μg/ml of the irrelevant antibody. The cells were incubated in an incubator at 37° C. for 24 hours. The result was expressed as the number of the cells that cross the base line."}}, "data": [{"molecule": "B1", "values": [{"measurement": "binding result", "setting": "[1]", "result": "binds"}]}, {"molecule": "B2", "values": [{"measurement": "inhibition of clone size formed by MDA-MB-435s cells on soft agar", "setting": "MDA-MB-435s cells [2]", "result": "no significant differences"}, {"measurement": "blocking of the binding between MDA-MB-435s cells and hOPN", "setting": "MDA-MB-435s cells [3]", "result": "effectively block"}, {"measurement": "3H-TdR incorporation relative to the OPN group", "setting": "[4]", "result": "significantly lower"}, {"measurement": "blocking of invasion of the basement membrane by MDA-MB-435s", "setting": "MDA-MB-435s cells [5]", "result": "effectively block"}, {"measurement": "corneal neovascularization relative to the OPN group", "setting": "rabbit cornea", "result": "significantly reduced"}, {"measurement": "area of neovascularization", "setting": "rabbit cornea", "result": "significantly shrunk"}, {"measurement": "length of the newly generated blood vessels", "setting": "rabbit cornea", "result": "significantly reduced"}, {"measurement": "potency of forming the capillary-like structure in HUVECs", "setting": "HUVECs", "result": "reduce"}, {"measurement": "inhibition of the reparation of the scratches and damages", "setting": "MDA-MB-435s cells [6]", "result": "effectively inhibit"}]}, {"molecule": "B3", "values": [{"measurement": "inhibition of clone size formed by MDA-MB-435s cells on soft agar", "setting": "MDA-MB-435s cells [2]", "result": "no significant differences"}, {"measurement": "blocking of the binding between MDA-MB-435s cells and hOPN", "setting": "MDA-MB-435s cells [3]", "result": "effectively block"}, {"measurement": "3H-TdR incorporation relative to the OPN group", "setting": "[4]", "result": "significantly lower"}, {"measurement": "blocking of invasion of the basement membrane by MDA-MB-435s", "setting": "MDA-MB-435s cells [5]", "result": "effectively block"}, {"measurement": "corneal neovascularization relative to the OPN group", "setting": "rabbit cornea", "result": "significantly reduced"}, {"measurement": "area of neovascularization", "setting": "rabbit cornea", "result": "significantly shrunk"}, {"measurement": "length of the newly generated blood vessels", "setting": "rabbit cornea", "result": "significantly reduced"}, {"measurement": "potency of forming the capillary-like structure in HUVECs", "setting": "HUVECs", "result": "reduce"}, {"measurement": "inhibition of the reparation of the scratches and damages", "setting": "MDA-MB-435s cells [6]", "result": "effectively inhibit"}]}]}
